Test results published in paper doi:10.1101/2025.07.01.662558 (bioRxiv, 2025).

T1: Hsp90 from S. oneidensis (Hsp90So), purified, non-labeled (S. oneidensis, UniProt Q8EFF7 1-637)
T1 sequence (looked up): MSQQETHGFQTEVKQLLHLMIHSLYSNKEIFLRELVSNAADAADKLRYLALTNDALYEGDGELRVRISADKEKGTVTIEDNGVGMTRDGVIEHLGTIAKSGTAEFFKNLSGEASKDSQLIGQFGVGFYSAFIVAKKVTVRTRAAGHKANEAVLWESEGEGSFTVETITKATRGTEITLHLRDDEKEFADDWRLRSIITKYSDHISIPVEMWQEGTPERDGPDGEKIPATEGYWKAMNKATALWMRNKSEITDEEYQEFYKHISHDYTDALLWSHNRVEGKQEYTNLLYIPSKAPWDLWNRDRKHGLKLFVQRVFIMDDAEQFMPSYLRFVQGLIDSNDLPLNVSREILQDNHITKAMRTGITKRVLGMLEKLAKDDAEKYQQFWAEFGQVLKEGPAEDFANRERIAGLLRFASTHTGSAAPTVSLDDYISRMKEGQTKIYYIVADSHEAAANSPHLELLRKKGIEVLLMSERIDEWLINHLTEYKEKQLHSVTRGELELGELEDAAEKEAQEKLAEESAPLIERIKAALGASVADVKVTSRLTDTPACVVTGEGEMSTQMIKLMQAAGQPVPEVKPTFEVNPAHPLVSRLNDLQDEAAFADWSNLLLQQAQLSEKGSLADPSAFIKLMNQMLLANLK


Biological target: T1, Hsp90 from S. oneidensis (Hsp90So), …
Assay: MST

Kd [µM]	binding result	Binder
1.09	–	TilS from S. oneidensis (TilSSo), purified, with 6-His tag (natural protein, UniProt Q8EGF9 1-464, looked up, RED-tris-NTA 2nd generation dye (NanoTemper) on the 6-His tag) MTAQDLSVHIARWLDSLPLQAGSKLVLAYSGGVDSEVLAYGLSEYAKQRPDLRYQLIYVHHGLSPNADNWAKHCQARAAIYGLPVTVERVQLILGPRVSVEAEARKARYQAILPHLNPQDILLTAHHEDDQLETILLALKRGQGPKGLAAMGQIQPLSLADKGSCLQVRPLLDISREMIETFAQTRQLVHIEDESNQDDKYDRNFLRLEIIPRLKARWPSIATTASRSAQLCAEQQAIVETEVSERLPKLLVKAPVTEQTVLKLSELAAQPIEWQGILLRGFIESQEFSLPSYVQLQQMLQQLIHAKEDAKVHIRINDCVLRRFAGMLYLDSGETLSTALHITARDLHQEILTLLTQASAMVEDKIVPFALVTTGPRLRLPKADEVVSLGYGLPGQFRCQPHFRDKGRELKKLWQECAVPPWLRAEVGFLFYNDKLVMAFGLWVEKAFCAQGDEIGLSYLIANP
–	binds	TilSSoL340P, purified (natural protein, S. oneidensis, UniProt Q8EGF9 1-464, looked up, RED-tris-NTA 2nd generation dye (NanoTemper)) MTAQDLSVHIARWLDSLPLQAGSKLVLAYSGGVDSEVLAYGLSEYAKQRPDLRYQLIYVHHGLSPNADNWAKHCQARAAIYGLPVTVERVQLILGPRVSVEAEARKARYQAILPHLNPQDILLTAHHEDDQLETILLALKRGQGPKGLAAMGQIQPLSLADKGSCLQVRPLLDISREMIETFAQTRQLVHIEDESNQDDKYDRNFLRLEIIPRLKARWPSIATTASRSAQLCAEQQAIVETEVSERLPKLLVKAPVTEQTVLKLSELAAQPIEWQGILLRGFIESQEFSLPSYVQLQQMLQQLIHAKEDAKVHIRINDCVLRRFAGMLYLDSGETLSTAPHITARDLHQEILTLLTQASAMVEDKIVPFALVTTGPRLRLPKADEVVSLGYGLPGQFRCQPHFRDKGRELKKLWQECAVPPWLRAEVGFLFYNDKLVMAFGLWVEKAFCAQGDEIGLSYLIANP
